Results taken from paper PMC7486707 (Proceedings of the National Academy of Sciences of the …, 2020).

Biological target: T1, STM-His6 (SHOOT …) (Arabidopsis thaliana, UniProt Q38874 1-382)
T1 sequence (looked up): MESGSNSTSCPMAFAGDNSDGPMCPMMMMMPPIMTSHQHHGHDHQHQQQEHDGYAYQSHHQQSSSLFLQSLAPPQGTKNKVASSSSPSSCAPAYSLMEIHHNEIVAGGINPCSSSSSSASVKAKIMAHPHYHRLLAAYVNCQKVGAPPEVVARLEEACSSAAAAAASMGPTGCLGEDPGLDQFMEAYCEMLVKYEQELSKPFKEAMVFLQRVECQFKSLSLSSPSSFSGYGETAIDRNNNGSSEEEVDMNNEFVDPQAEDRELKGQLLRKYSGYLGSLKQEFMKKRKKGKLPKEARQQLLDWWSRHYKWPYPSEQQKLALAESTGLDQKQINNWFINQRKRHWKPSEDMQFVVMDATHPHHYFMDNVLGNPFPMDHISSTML
Test: pull-down

binding result: binds
B1: GST-WUS (WUSCHEL) (natural protein, Arabidopsis thaliana, UniProt Q9SB92 1-292, looked up)
chain: MEPPQHQHHHHQADQESGNNNNNKSGSGGYTCRQTSTRWTPTTEQIKILKELYYNNAIRSPTADQIQKITARLRQFGKIEGKNVFYWFQNHKARERQKKRFNGTNMTTPSSSPNSVMMAANDHYHPLLHHHHGVPMQRPANSVNVKLNQDHHLYHHNKPYPSFNNGNLNHASSGTECGVVNASNGYMSSHVYGSMEQDCSMNYNNVGGGWANMDHHYSSAPYNFFDRAKPLFGLEGHQEEEECGGDAYLEHRRTLPLFPMHGEDHINGGSGAIWKYGQSEVRPCASLELRLN
